The term Kd denotes the free concentration of one partner at which half of the binding sites on the other are occupied at equilibrium, for simple one-to-one binding.

The target of test [1] is CLSPCOL (hybrid polypeptide of CLSP(1-61), MycHisG and the collagen-homologous region of adiponectin) (human). Put plainly: cell-based or functional assay.
For test [2], the target named is human CLSP-MycHis (calmodulin-like skin protein, C-terminally tagged with MycHis) (human) (UniProt Q9NZT1). Nature of the test: cell-based or functional assay.
The target in test [3] is CLSP(1-61)-MycHis (N-terminal region of CLSP, amino acid 1-61, C-terminally tagged with MycHis) (human) (UniProt Q9NZT1). Nature of the test: cell-based or functional assay.
In test [4] the target is T1, apolipoprotein E4 C-terminally tagged with FLAG (overexpressed in F11 cells, immunoprecipitated with FLAG … (human, UniProt P02649 19-317)).
T1 construct: also called ApoE4-FLAG; ApoE4; not shown: C-terminal FLAG tag
Nature of the test: pull-down with immunoprecipitated ApoE4-FLAG, immunoblot (FIG. 15 a, b). The method, then:
(a, b) <Apolipoprotein E4 binds to the C-terminal region of CLSP> A schematic illustration of deletion mutants of CLSP is shown in (a). Apolipoprotein E4 (ApoE4) and adiponectin (ADN), C-terminally tagged with FLAG, were overexpressed in F11 neurohybrid cells by transfection. At 24 hours after the transfection, the cell lysates of F11 cells were prepared. For immunoprecipitation of ApoE4-FLAG and ADN-FLAG using the FLAG antibody, 300 μg of cell lysates was used. Recombinant CLSP-MycHis (FL-MH) or C-terminally MycHis-tagged CLSP deletion mutants produced in bacteria were purified. These immunoprecipitates and recombinant proteins were then subjected to SDS-PAGE and immunoblot analysis using the myc and FLAG antibodies (inputs). The ApoE4-FLAG and ADN-FLAG immunoprecipitates were mixed with recombinant CLSP-MycHis (FL-MH) or C-terminally MycHis-tagged CLSP deletion mutants and incubated at 4° C. overnight, followed by exhaustive washing. The pulled-down precipitates were then subjected to SDS-PAGE and immunoblotted using the myc and FLAG antibodies. (c) <CLSP binds to the collagen-homologous region of adiponectin> The collagen-homologous region of adiponectin (ADNCol), N-terminally tagged with 6×His and G(HisG), was produced in bacteria. In addition, CLSP-FLAG was overexpressed in F11 neurohybrid cells by transfection. […]
Background: Immunoblotting shows a protein as a band on a membrane.

Test [5] concerns the target T1, apolipoprotein E4 C-terminally tagged …. Put plainly: pull-down of purified MycHis-tagged CLSP proteins with ApoE4-FLAG immunoprecipitated on M2 agarose beads, WB anti-myc [ApoE4 beads].
Test [6] concerns the target T2, human adiponectin (BioVendor, cat. no. RD172029100) (human, UniProt Q15848 19-244, limits assumed).
T2 construct: Bought; also called ADN; wild-type adiponectin
T2 sequence: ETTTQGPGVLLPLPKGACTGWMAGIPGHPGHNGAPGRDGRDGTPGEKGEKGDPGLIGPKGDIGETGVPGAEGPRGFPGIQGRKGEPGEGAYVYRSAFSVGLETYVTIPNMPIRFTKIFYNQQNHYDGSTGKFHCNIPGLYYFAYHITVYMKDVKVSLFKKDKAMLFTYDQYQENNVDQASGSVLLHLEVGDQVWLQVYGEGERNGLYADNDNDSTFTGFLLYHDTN
Put plainly: plate coated with adiponectin, rising CLSP-HiBiT, chemiluminescence (Nano-Glo HiBiT), Scatchard analysis; adiponectin on the plate. The method, then:
(§1) The dissociation constants (Kd) for the binding between CLSP and adiponectin, and between CLSP and ApoE4 were then measured (FIGS. 8b and c). For this purpose, adiponectin or ApoE4 protein was conjugated to the 96-well plates. Various concentrations of recombinant CLSP C-terminally tagged with HiBiT, a chemiluminescence producing tag, were added to the plates for simultaneous incubation. After washing, the amount of CLSP-HiBiT binding to adiponectin or ApoE4 on the wells was measured. The dissociation constant between adiponectin and CLSP or between ApoE4 and CLSP was measured to be 8.8 or 7.8 pM respectively by Scatchard analysis (FIG. 8c).
(§2) The dissociation constant for the binding between ApoE4 (or adiponectin) and CLSP was measured using Nano-Glo HiBiT Extracellular Detection System (Promega, cat. no.: N2420) in accordance with the instruction. For the coating of recombinant ApoE4 or adiponectin, 100 μl of 50 mM carbonate buffer (pH 9.6) containing 20 pM ApoE4 or adiponectin was incubated overnight at 4° C. in the wells of 96-well plates (Fluorescence-use Black-type Plate H, cat. no.: MS-8596KZ, Sumitomo Bakelite Co., Ltd., Tokyo, Japan). The protein-coated plates were washed three times with 200 μl of PBS. Then, 150 μl of PBS containing 1% skim milk (GIBCO) was added to each well. […] Resulting chemiluminescence was measured for each well using Wallac ARVO™ X5 (Perkin Elmer). […]
In general terms: The HiBiT peptide binds its large partner to form an active luciferase.

The target in test [7] is T3, recombinant human ApoE4 (PeproTech, cat. no. 350-04) (human, UniProt P02649 19-317).
T3 construct: also called apolipoprotein E4
Put plainly: plate coated with ApoE4, rising CLSP-HiBiT, chemiluminescence (Nano-Glo HiBiT), Scatchard analysis; ApoE4 on the plate. The method, then:
as §1, §2

For test [8], the target named is T2, human adiponectin (BioVendor, cat. no. …). Nature of the test: Scatchard analysis; wells coated with 20 pM adiponectin, stepwise CLSP-HiBiT, HiBiT chemiluminescence [plot ADN]. The method, then: (§3) Dissociation constants were calculated by the Scatchard analysis using Prism7 software.
as §1
as §2, with “Japan).” for “Japan). The protein-coated plates were washed three times with 200 μl of PBS. Then, 150 μl of PBS containing 1% skim milk (GIBCO) was added to each well.”

The target in test [9] is T3, recombinant human ApoE4 (PeproTech, …). Nature of the test: Scatchard analysis; wells coated with 20 pM recombinant ApoE4, stepwise CLSP-HiBiT, HiBiT chemiluminescence [plot ApoE4]. How it is done: as §3, §1
as §2, with “Japan).” for “Japan). The protein-coated plates were washed three times with 200 μl of PBS. Then, 150 μl of PBS containing 1% skim milk (GIBCO) was added to each well.”

T1 sequence (P02649 19-317 C130R limits assumed): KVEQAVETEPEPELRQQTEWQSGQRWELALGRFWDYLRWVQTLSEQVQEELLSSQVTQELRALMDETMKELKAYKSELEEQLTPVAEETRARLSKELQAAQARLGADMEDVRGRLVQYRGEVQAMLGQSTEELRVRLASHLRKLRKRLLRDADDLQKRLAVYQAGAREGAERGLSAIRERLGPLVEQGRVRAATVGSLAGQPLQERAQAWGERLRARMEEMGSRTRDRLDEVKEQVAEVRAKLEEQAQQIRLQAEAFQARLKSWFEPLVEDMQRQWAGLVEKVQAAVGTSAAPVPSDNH
T3 sequence (P02649 19-317 C130R limits assumed): as above

As to calreticulin, the inhibition of the cell death-suppressing activity of 100 pM CLSPCOL; concentration at which inhibition began in test [1] was 1 nM. The molecule further yielded an inhibition of the CLSP-mediated protection of V642I-APP-induced neuronal death; concentration for complete inhibition of 10 nM CLSP in test [2] of 50 nM. In test [3], this molecule registered an inhibition of the cell death-suppressing activity of CLSP1-61 (cell death assay, FIG. 19) of 10 fold amount.

As for “recombinant GST-human 14-3-3σ (from UniProt P31947 1-248)”, in [2], the inhibition of the CLSP-mediated protection of V642I-APP-induced neuronal death; concentration at which inhibition of 10 nM CLSP began came to 10 nM and the inhibition of the CLSP-mediated protection of V642I-APP-induced neuronal death; concentration for complete inhibition of 10 nM CLSP amounted to 20 nM. Further, the inhibition of the cell death-suppressing activity of CLSP1-61 (cell death assay, FIG. 19) in test [3] was 10 fold amount.

B1: CLSP(1-61)-MycHis (N-terminal region of CLSP, amino acid 1-61, C-terminally tagged with MycHis) (ligand)
chain: MAGELTPEEEAQYKKAFSAVDTDGNGTINAQELGAALKATGKNLSEAQLRKLISEVDSDGD
notes: Made in bacteria; not shown: C-terminal MycHis tag
As to B1, the binding result in [4] is reported as “no binding”.

B2: CLSP deletion mutant EHR, C-terminally tagged with MycHis (consists of only the endogenous humanin-homogenous region) (peptide)
chain: TGKNLSEAQLRKLISEVDSDGD
notes: also called mutants consisting of only EHR; not shown: C-terminal MycHis tag
Consider B2, for which the binding result in test [5] is “no binding”.

B3: CLSP-HiBiT (recombinant CLSP C-terminally tagged with HiBiT) (ligand)
chain: MAGELTPEEEAQYKKAFSAVDTDGNGTINAQELGAALKATGKNLSEAQLRKLISEVDSDGDGEISFQEFLTAAKKARAGLEDLQVAFRAFDQDGDGHITVDELRRAMAGLGQPLPQEELDAMIREADVDQDGRVNYEEFARMLAQEVSGWRLFKKIS
notes: HiBiT oligonucleotides were put into pGEX-2T-CLSP at the SmaI-EcoRI site; Made 'in the same way' as CLSP-MycHis (GST fusion, thrombin release); also called GST-CLSP-HiBiT (precursor)
For the molecule B3, the Kd was determined as 8.8 pM in test [6], 7.8 pM in test [7], 7.8 pM in test [8] and 8.8 pM in test [9].

For the origin of these results see patent US20220275038A1 (TOKYO MEDICAL UNIVERSITY, published 2022).
